Source: US20250354149, “L-RNA APTAMER-ANTISENSE OLIGONUCLEOTIDE CONJUGATES AND USES THEREOF” (CITY UNIVERSITY OF HONG KONG, published 2025)

Columns and labels:
DHX36 = molecular target: T1, DHX36 (Homo sapiens, UniProt Q9H2U1 SEQ:1-1008); test: EMSA; strong gel shift bands with DHX36; data not shown; exact label of the oligo not stated; conditions: label: 5' HEX; RNA G-quadruplex with 3' flank
T1 chain: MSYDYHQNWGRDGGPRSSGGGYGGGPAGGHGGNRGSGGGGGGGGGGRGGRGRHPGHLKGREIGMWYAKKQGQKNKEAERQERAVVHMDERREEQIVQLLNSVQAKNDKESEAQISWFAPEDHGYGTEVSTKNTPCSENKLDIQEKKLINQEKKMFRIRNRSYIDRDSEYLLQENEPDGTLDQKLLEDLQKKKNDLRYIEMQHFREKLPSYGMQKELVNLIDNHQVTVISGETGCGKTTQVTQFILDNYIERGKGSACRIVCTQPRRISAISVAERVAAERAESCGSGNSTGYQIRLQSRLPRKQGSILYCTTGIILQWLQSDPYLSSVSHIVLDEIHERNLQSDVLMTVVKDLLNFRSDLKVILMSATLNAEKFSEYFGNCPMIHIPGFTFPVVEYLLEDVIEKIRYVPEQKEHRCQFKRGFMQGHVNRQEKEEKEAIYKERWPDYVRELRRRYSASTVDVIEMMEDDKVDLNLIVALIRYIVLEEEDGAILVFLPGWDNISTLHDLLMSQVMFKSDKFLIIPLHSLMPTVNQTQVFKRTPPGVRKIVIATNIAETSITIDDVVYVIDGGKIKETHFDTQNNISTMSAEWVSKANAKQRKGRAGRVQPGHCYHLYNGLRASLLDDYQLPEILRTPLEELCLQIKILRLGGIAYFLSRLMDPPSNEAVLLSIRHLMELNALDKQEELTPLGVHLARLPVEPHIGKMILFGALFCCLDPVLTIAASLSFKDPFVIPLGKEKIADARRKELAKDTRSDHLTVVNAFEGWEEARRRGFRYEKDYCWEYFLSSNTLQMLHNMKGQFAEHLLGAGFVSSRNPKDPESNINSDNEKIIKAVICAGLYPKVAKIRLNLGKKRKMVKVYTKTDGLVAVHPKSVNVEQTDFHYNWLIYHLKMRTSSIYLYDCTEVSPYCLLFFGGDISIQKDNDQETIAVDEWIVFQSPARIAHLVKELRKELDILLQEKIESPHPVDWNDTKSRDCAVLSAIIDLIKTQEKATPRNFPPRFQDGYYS

[1] = molecular target: T2, RHAU53 peptide (DHX36 rG4-binding domain) (synthetic construct, UniProt Q9H2U1 SEQ:1-53); test: EMSA; 100 nM RHAU53; binding to APP rG4 region inhibited by L-Apt.4-1c-ASO15nt(APP); data not shown; 37 C, KCl, MgCl2; conditions: protein: synthetic; tags: none, chemically synthesized by Synpeptide; label: 5' HEX; RNA G-quadruplex with 3' flank
T2 sequence: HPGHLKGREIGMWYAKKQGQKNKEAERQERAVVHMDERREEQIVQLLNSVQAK
Procedure: L-Apt.4-1c-ASO15nt_{(APP)} conjugate was serial diluted, and then the conjugate and HEX APP rG4 wt region were firstly refolded by heating at 95° C. for 5 min, 25° C. for 5 min, then 4° C. for at least 30 min separately in buffer containing 150 mM KCl, 1 mM MgCl₂, 25 mM Tris-HCl (pH 7.5) and 8% sucrose separately. 48 nM DHX36 protein (SEQ ID NO: 41) (or 100 nM RHAU53 peptide (SEQ ID NO: 42)), HEX_APP rG4 wt region (SEQ ID NO: 12) and L-Apt.4-1c-ASO15nt_{(APP)} were mixed and incubated for 30 min at 37° C. for competition binding. Then, the samples were loaded and resolved in 6% (37.5:1, acrylamide/bis-acrylamide) native gel for 70min at 35 mA at 4° C. in the running buffer containing 50 mM KOAc, 25 mM Tris-HCl (pH 7.5), 1 mM MgCl₂ (for DHX36) or running at 12.5 mA for 75 min in buffer containing 0.5×TBE and 40 mM KOAc (for RHAU53). At last, gels were scanned using Typhoon laser-scanner platform (Cytiva). Gel pictures were analyzed by image J software.

GGGGCGGGUGGGGAGGGGUGCUCUGCUGGUCUUCAAUU (ssRNA) [APP rG4 wt region (HEX)]
binding result (DHX36): binds
binding result [1]: binds
